This assay has as its target T1, His-Cdc20 (baculovirus-expressed human Cdc20) (human, UniProt Q12834 1-499).
T1 construct: Also used for the Cdc20 baculovirus of the SF9 co-infection; also called purified baculovirus-expressed Cdc20; Baculovirus-expressed Cdc20; not shown: His tag
As to the kind of experiment: SF9 cells co-infected with Emi1 and Cdc20 baculoviruses, anti-Emi1 immunoprecipitation, Cdc20 immunoblot. In general terms: Immunoblotting shows a protein as a band on a membrane.

The record followed here is US20030022837A1 (Stanford University, published 2003).

T1 sequence (Q12834 whole entry): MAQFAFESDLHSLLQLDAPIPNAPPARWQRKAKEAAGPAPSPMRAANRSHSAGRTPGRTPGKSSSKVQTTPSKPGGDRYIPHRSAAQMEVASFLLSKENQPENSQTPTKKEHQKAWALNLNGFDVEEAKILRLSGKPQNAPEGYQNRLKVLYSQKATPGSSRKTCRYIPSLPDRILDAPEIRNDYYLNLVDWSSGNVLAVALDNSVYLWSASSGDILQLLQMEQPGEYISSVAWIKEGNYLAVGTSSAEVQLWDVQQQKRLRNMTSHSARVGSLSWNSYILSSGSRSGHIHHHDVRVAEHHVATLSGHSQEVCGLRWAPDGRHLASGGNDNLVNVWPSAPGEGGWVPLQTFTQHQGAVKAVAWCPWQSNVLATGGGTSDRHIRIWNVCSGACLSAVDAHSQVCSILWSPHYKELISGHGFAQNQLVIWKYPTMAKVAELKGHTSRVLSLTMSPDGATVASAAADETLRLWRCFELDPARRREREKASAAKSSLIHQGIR

B1: Xenopus Emi1 (Early Mitotic Inhibitor 1), full-length wild type (other)
chain: MMCGFASNQSPKKLSSKKSSATNVHLEISPVKHHPPCKVYENVQGSCLDSAICTTVAKCADLTDDLPVHNKENLLHRLNDLETNSYEEYSALQDSGYSSILQNDSPCQDETDRKVSDIQVRETPKNFMSYQRPFHTLSKINLPILRFEEAVCSTLKKMRKTNKKIDWNAVDVVCGGNYGLEHLIGKSMGLERFDILAELFHRDFKHLLTKILRHLSAMDLINVISVSTTWRKLLQKDNWAYNAYKLGCKELCEKRAKVSSHTATRDESLCRVPLASVQKVAASSLCTSKKQSKNKNGGLSCNRLAEFIEVAQTLKNDQSLKVCVDCGSPAKHDPCLHRAICTRESCKLDFCTRCSCKYHFSKSCLMSKPGSYRIPSEPLPGSKKSKQNLRRL
notes: 392 residues; also called xEmi1; Emi1p
For B1, the binding result is reported as “binds”.
